± gives the standard deviation of the averaged measurements.
Columns and labels:
Saccharomyces cerevisiae [1] = experiment: protein stability index of tFT-peptide fusion (C-terminal peptide) (PSI (0-1 scale)); higher = more stable (slower turnover)
Method: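 MPS profiling in S. cerevisiae of the tFT-X12 degron library: putative degron peptides plus stable controls, 12 aa, fused to the C-terminus of a sfGFP-mCherry timer. Cells are FACS-sorted into 8 mCherry/sfGFP bins and deep-sequenced. PSI runs from 0 (unstable) to 1 (stable). Backgrounds are wild type, das1Δ and doa10Δ at 30 °C, and wild type, das1Δ, cdc34-1 and cdc53-1 at 37 °C; 2-3 technical replicates each.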

Saccharomyces cerevisiae [2] = experiment: as above; conditions: genetic background: wild type; temperature: 30 C
[3] = genetic background: cdc34-1, temperature: 37 C
[4] = genetic background: cdc53-1, temperature: 37 C
[5] = genetic background: das1 deletion, temperature: 30 C
[6] = genetic background: das1 deletion, temperature: 37 C
[7] = genetic background: doa10 deletion, temperature: 30 C
[8] = genetic background: wild type, temperature: 30 C
[9] = genetic background: wild type, temperature: 37 C
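Note: PSI is a weighted mean of sequencing reads over stability bins, variants kept only with over 10 reads, mCherry proximal and sfGFP distal, peptide attached via GGGS linker.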

Row | Sequence | protein stability index (Saccharomyces cerevisiae [1]; [3]) | protein stability index (Saccharomyces cerevisiae [1]; [4]) | protein stability index (Saccharomyces cerevisiae [1]; [5]) | protein stability index (Saccharomyces cerevisiae [1]; [6]) | protein stability index (Saccharomyces cerevisiae [1]; [7]) | protein stability index (Saccharomyces cerevisiae [1]; [8]) | protein stability index (Saccharomyces cerevisiae [1]; [9]) | protein stability index (Saccharomyces cerevisiae [2])
1 | LYCGLIFFLRGV | 0.6263 ± 0.0019 | 0.6389 ± 0.0017 | 0.516 ± 0.018 | 0.6475 ± 0.0026 | 0.468 ± 0.032 | 0.472 ± 0.029 | 0.612 ± 0.0081 | 0.516 ± 0.084
2 | LYFLLGSLVFVF | 0.366 ± 0.0083 | 0.417 ± 0.015 | 0.273 ± 0.035 | 0.506 ± 0.014 | 0.244 ± 0.0021 | 0.275 ± 0.019 | 0.461 ± 0.031 | 0.392 ± 0.0081
3 | MALAVRVVTCGA | 0.185 ± 0.014 | 0.297 ± 0.075 | 0.228 ± 0.036 | 0.363 ± 0.014 | 0.191 ± 0.0047 | 0.223 ± 0.031 | 0.313 ± 0.015 | 0.375 ± 0.076
4 | MIQPRLANIIIS | 0.8517 ± 0.0056 | 0.864 ± 0.017 | 0.683 ± 0.018 | 0.833 ± 0.015 | 0.713 ± 0.024 | 0.6987 ± 0.0051 | 0.779 ± 0.017 | 0.753 ± 0.018
5 | MLVLFCLCYILG | 0.2462 ± 0.0023 | 0.34 ± 0.013 | 0.231 ± 0.025 | 0.377 ± 0.0043 | 0.217 ± 0.013 | 0.235 ± 0.037 | 0.338 ± 0.03 | 0.341 ± 0.0068
6 | MSHVCICRRLML | 0.68 ± 0.037 | 0.743 ± 0.016 | 0.609 ± 0.025 | 0.712 ± 0.032 | 0.404 ± 0.028 | 0.427 ± 0.0081 | 0.646 ± 0.048 | 0.498 ± 0.011
7 | NFVVYHVAIRVP | 0.073 ± 0.0071 | 0.134 ± 0.0046 | 0.17 ± 0.017 | 0.2466 ± 0.0024 | 0.139 ± 0.0025 | 0.155 ± 0.019 | 0.198 ± 0.02 | 0.243 ± 0.037
8 | PAPQAVRIFSLY | 0.62 ± 0.089 | 0.74 ± 0.026 | 0.653 ± 0.044 | 0.744 ± 0.026 | 0.179 ± 0.01 | 0.183 ± 0.022 | 0.39 ± 0.019 | 0.428 ± 0.046
9 | PASYPPFIYLSI | 0.306 ± 0.012 | 0.288 ± 0.018 | 0.419 ± 0.032 | 0.496 ± 0.01 | 0.654 ± 0.018 | 0.418 ± 0.026 | 0.4461 ± 0.00056 | 0.434 ± 0.077
10 | PCFACIAFVLFP | 0.451 ± 0.013 | 0.413 ± 0.093 | 0.356 ± 0.038 | 0.509 ± 0.032 | 0.334 ± 0.013 | 0.343 ± 0.014 | 0.4507 ± 0.0011 | 0.4827 ± 0.004
11 | PLFLRPLSVPVL | 0.421 ± 0.0067 | 0.441 ± 0.01 | 0.333 ± 0.03 | 0.457 ± 0.0058 | 0.305 ± 0.0096 | 0.328 ± 0.024 | 0.4324 ± 0.0022 | 0.425 ± 0.0092
12 | PLLPCRPILFLL | 0.559 ± 0.072 | 0.627 ± 0.027 | 0.558 ± 0.028 | 0.6615 ± 0.0026 | 0.125 ± 0.0042 | 0.117 ± 0.014 | 0.182 ± 0.038 | 0.197 ± 0.043
13 | PLLPLPRFPLFA | 0.547 ± 0.018 | 0.558 ± 0.038 | 0.411 ± 0.03 | 0.595 ± 0.021 | 0.332 ± 0.009 | 0.367 ± 0.013 | 0.529 ± 0.019 | 0.41 ± 0.021
14 | PLSDPLRVILIM | 0.55 ± 0.016 | 0.633 ± 0.06 | 0.501 ± 0.0089 | 0.627 ± 0.014 | 0.188 ± 0.0023 | 0.22 ± 0.023 | 0.328 ± 0.017 | 0.443 ± 0.063
15 | PPPPTPRPLLPP | 0.662 ± 0.011 | 0.7253 ± 0.0031 | 0.677 ± 0.034 | 0.73 ± 0.021 | 0.666 ± 0.039 | 0.667 ± 0.011 | 0.697 ± 0.012 | 0.449 ± 0.029
16 | PPPRLPLLSCSQ | 0.661 ± 0.025 | 0.679 ± 0.0094 | 0.669 ± 0.016 | 0.6752 ± 0.00072 | 0.632 ± 0.024 | 0.638 ± 0.034 | 0.66 ± 0.022 | 0.408 ± 0.013
17 | PPPSRRLTLRLA | 0.612 ± 0.035 | 0.6993 ± 0.0065 | 0.681 ± 0.02 | 0.698 ± 0.009 | 0.179 ± 0.017 | 0.21 ± 0.02 | 0.397 ± 0.015 | 0.292 ± 0.041
18 | PPWRPVALLLLA | 0.206 ± 0.029 | 0.259 ± 0.022 | 0.247 ± 0.022 | 0.384 ± 0.007 | 0.0824 ± 0.02 | 0.0841 ± 0.018 | 0.117 ± 0.077 | 0.156 ± 0.013
19 | PRFCVYARFHNT | 0.713 ± 0.016 | 0.748 ± 0.01 | 0.649 ± 0.036 | 0.722 ± 0.054 | 0.298 ± 0.023 | 0.375 ± 0.033 | 0.567 ± 0.02 | 0.387 ± 0.022
20 | PRFWFYLSYSVH | 0.429 ± 0.044 | 0.514 ± 0.012 | 0.373 ± 0.044 | 0.533 ± 0.015 | 0.3014 ± 0.0016 | 0.344 ± 0.02 | 0.493 ± 0.01 | 0.431 ± 0.032

Row | Sequence | protein stability index (Saccharomyces cerevisiae [1]; [3]) | protein stability index (Saccharomyces cerevisiae [1]; [4]) | protein stability index (Saccharomyces cerevisiae [1]; [5]) | protein stability index (Saccharomyces cerevisiae [1]; [6]) | protein stability index (Saccharomyces cerevisiae [1]; [7]) | protein stability index (Saccharomyces cerevisiae [1]; [8]) | protein stability index (Saccharomyces cerevisiae [1]; [9]) | protein stability index (Saccharomyces cerevisiae [2])
21 | PSPPPPLPPHPS | 0.688 ± 0.039 | 0.7321 ± 0.0069 | 0.69 ± 0.031 | 0.72 ± 0.01 | 0.685 ± 0.019 | 0.667 ± 0.013 | 0.716 ± 0.032 | 0.721 ± 0.025
22 | PSPPPPRPASPS | 0.7 ± 0.052 | 0.7492 ± 0.0073 | 0.651 ± 0.0084 | 0.72829 ± 0.00037 | 0.667 ± 0.048 | 0.652 ± 0.015 | 0.719 ± 0.0084 | 0.439 ± 0.023
23 | PSTLVITVVITK | 0.247 ± 0.019 | 0.29 ± 0.0099 | 0.279 ± 0.029 | 0.4255 ± 0.0021 | 0.23 ± 0.023 | 0.243 ± 0.03 | 0.389 ± 0.02 | 0.37 ± 0.038
24 | PYHAPRPPFSLF | 0.511 ± 0.05 | 0.68 ± 0.0087 | 0.667 ± 0.021 | 0.7543 ± 0.0025 | 0.0708 ± 0.013 | 0.0545 ± 0.017 | 0.111 ± 0.04 | 0.149 ± 0.0084
25 | QARQLEMYMVVF | 0.638 ± 0.066 | 0.532 ± 0.12 | 0.403 ± 0.041 | 0.579 ± 0.02 | 0.379 ± 0.015 | 0.418 ± 0.013 | 0.544 ± 0.0069 | 0.432 ± 0.0045
26 | QCKHIVRKIKLH | 0.426 ± 0.089 | 0.61 ± 0.11 | 0.617 ± 0.014 | 0.737 ± 0.018 | 0.117 ± 0.016 | 0.0952 ± 0.034 | 0.147 ± 0.014 | 0.186 ± 0.025
27 | QDFFYCLLVATS | 0.155 ± 0.0058 | 0.276 ± 0.015 | 0.21 ± 0.038 | 0.3605 ± 0.003 | 0.174 ± 0.0022 | 0.205 ± 0.03 | 0.305 ± 0.0038 | 0.317 ± 0.029
28 | QGILVGCCYVLC | 0.426 ± 0.024 | 0.4409 ± 0.00073 | 0.313 ± 0.021 | 0.5035 ± 0.00077 | 0.2731 ± 0.0018 | 0.3 ± 0.023 | 0.4657 ± 0.0015 | 0.386 ± 0.022
29 | QLGGKVGNCHVV | 0.683 ± 0.046 | 0.7507 ± 0.0047 | 0.6644 ± 0.0051 | 0.732 ± 0.025 | 0.668 ± 0.05 | 0.652 ± 0.009 | 0.715 ± 0.034 | 0.75 ± 0.021
30 | QVGRPRVGFSRR | 0.704 ± 0.035 | 0.7483 ± 1.4e-05 | 0.652 ± 0.0075 | 0.75 ± 0.016 | 0.657 ± 0.016 | 0.66 ± 0.02 | 0.7302 ± 0.0063 | 0.764 ± 0.014
31 | RAFFLLYCTLWA | 0.0997 ± 0.0085 | 0.204 ± 0.039 | 0.163 ± 0.027 | 0.266 ± 0.012 | 0.132 ± 0.016 | 0.161 ± 0.025 | 0.24 ± 0.0077 | 0.206 ± 0.04
32 | RALYLLALVGVS | 0.234 ± 0.0075 | 0.254 ± 0.02 | 0.223 ± 0.034 | 0.371 ± 0.0042 | 0.169 ± 0.0096 | 0.214 ± 0.024 | 0.3484 ± 0.0029 | 0.362 ± 0.11
33 | RARFMLGVLLST | 0.5525 ± 0.0044 | 0.617 ± 0.033 | 0.487 ± 0.028 | 0.5834 ± 0.0054 | 0.314 ± 0.0056 | 0.352 ± 0.024 | 0.49366 ± 3e-05 | 0.451 ± 0.021
34 | RARLRFASLRAF | 0.546 ± 0.015 | 0.629 ± 0.079 | 0.64 ± 0.13 | 0.644 ± 0.029 | 0.144 ± 0.012 | 0.122 ± 0.008 | 0.217 ± 0.018 | 0.176 ± 0.01
35 | RDRHFKIQTCIM | 0.662 ± 0.016 | 0.721 ± 0.017 | 0.648 ± 0.02 | 0.717 ± 0.014 | 0.24 ± 0.017 | 0.246 ± 0.039 | 0.515 ± 0.035 | 0.388 ± 0.0046
36 | RFCLLFVVAGGV | 0.516 ± 0.0057 | 0.527 ± 0.024 | 0.343 ± 0.019 | 0.546 ± 0.0069 | 0.35 ± 0.035 | 0.371 ± 0.018 | 0.516 ± 0.015 | 0.457 ± 0.017
37 | RFFFFFPCLLAP | 0.349 ± 0.011 | 0.3411 ± 0.001 | 0.417 ± 0.019 | 0.525 ± 0.026 | 0.519 ± 0.025 | 0.418 ± 0.029 | 0.486 ± 0.006 | 0.457 ± 0.048
38 | RFYLFLFFVRST | 0.302 ± 0.055 | 0.4403 ± 0.0022 | 0.316 ± 0.039 | 0.5488 ± 0.0049 | 0.113 ± 0.0039 | 0.11 ± 0.008 | 0.131 ± 0.012 | 0.175 ± 0.0048
39 | RGGVCFVVWCGG | 0.46 ± 0.03 | 0.503 ± 0.095 | 0.435 ± 0.0077 | 0.475 ± 0.029 | 0.4305 ± 0.00076 | 0.432 ± 0.0053 | 0.441 ± 0.0061 | 0.429
